Test results reported in the Human Domainome abundance scans (Beltran et al. 2025).
± gives the uncertainty stated by the source.

B1: Formin-binding protein 4, residues 200 to 261; numbered along this chain, Q8N3X1 (parent)
chain: SGWQYDTQCSLAGVGIEMGDWQEVWDENTGCYYYWNTQTNEVTWELPQYLATQVQGLQHYQP

Variants of: B1
Experiment: abundance fitness (aPCA) (normalised: wild type 0, dead -1); higher = more abundant; growth selection in yeast, the domain comes from the species named
Conditions: Homo sapiens

Variant	abundance fitness
SGWQYDTQCLLAGVGIEMGDWQEVWDENTGCYYYWNTQTNEVTWELPQYLATQVQGLQHYQP [S10L]	-0.651 ± 0.074
SGWQYDTQCCLAGVGIEMGDWQEVWDENTGCYYYWNTQTNEVTWELPQYLATQVQGLQHYQP [S10C]	-0.332 ± 0.098
SGWQYDTQCKLAGVGIEMGDWQEVWDENTGCYYYWNTQTNEVTWELPQYLATQVQGLQHYQP [S10K]	-0.457 ± 0.12
SGWQYDTQCFLAGVGIEMGDWQEVWDENTGCYYYWNTQTNEVTWELPQYLATQVQGLQHYQP [S10F]	-0.776 ± 0.14
SGWQYDTQCALAGVGIEMGDWQEVWDENTGCYYYWNTQTNEVTWELPQYLATQVQGLQHYQP [S10A]	-0.266 ± 0.065
SGWQYDTQCDLAGVGIEMGDWQEVWDENTGCYYYWNTQTNEVTWELPQYLATQVQGLQHYQP [S10D]	-0.472 ± 0.12
SGWQYDTQCGLAGVGIEMGDWQEVWDENTGCYYYWNTQTNEVTWELPQYLATQVQGLQHYQP [S10G]	-0.148 ± 0.052
SGWQYDTQCHLAGVGIEMGDWQEVWDENTGCYYYWNTQTNEVTWELPQYLATQVQGLQHYQP [S10H]	-0.644 ± 0.15
SGWQYDTQCILAGVGIEMGDWQEVWDENTGCYYYWNTQTNEVTWELPQYLATQVQGLQHYQP [S10I]	-0.476 ± 0.14
SGWQSDTQCSLAGVGIEMGDWQEVWDENTGCYYYWNTQTNEVTWELPQYLATQVQGLQHYQP [Y5S]	-0.323 ± 0.067
SGWQVDTQCSLAGVGIEMGDWQEVWDENTGCYYYWNTQTNEVTWELPQYLATQVQGLQHYQP [Y5V]	-0.534 ± 0.09
SGWQMDTQCSLAGVGIEMGDWQEVWDENTGCYYYWNTQTNEVTWELPQYLATQVQGLQHYQP [Y5M]	0.06 ± 0.064
SGWQQDTQCSLAGVGIEMGDWQEVWDENTGCYYYWNTQTNEVTWELPQYLATQVQGLQHYQP [Y5Q]	-0.357 ± 0.092
SGWQWDTQCSLAGVGIEMGDWQEVWDENTGCYYYWNTQTNEVTWELPQYLATQVQGLQHYQP [Y5W]	-0.207 ± 0.09
SGWQTDTQCSLAGVGIEMGDWQEVWDENTGCYYYWNTQTNEVTWELPQYLATQVQGLQHYQP [Y5T]	-0.271 ± 0.085
SGWQPDTQCSLAGVGIEMGDWQEVWDENTGCYYYWNTQTNEVTWELPQYLATQVQGLQHYQP [Y5P]	-0.506 ± 0.11
SGWQRDTQCSLAGVGIEMGDWQEVWDENTGCYYYWNTQTNEVTWELPQYLATQVQGLQHYQP [Y5R]	-0.181 ± 0.061
SGWQLDTQCSLAGVGIEMGDWQEVWDENTGCYYYWNTQTNEVTWELPQYLATQVQGLQHYQP [Y5L]	-0.425 ± 0.058
SGWQYTTQCSLAGVGIEMGDWQEVWDENTGCYYYWNTQTNEVTWELPQYLATQVQGLQHYQP [D6T]	-0.139 ± 0.081
SGWQYHTQCSLAGVGIEMGDWQEVWDENTGCYYYWNTQTNEVTWELPQYLATQVQGLQHYQP [D6H]	-0.282 ± 0.12
SGWQYWTQCSLAGVGIEMGDWQEVWDENTGCYYYWNTQTNEVTWELPQYLATQVQGLQHYQP [D6W]	-0.555 ± 0.1
SGWQYATQCSLAGVGIEMGDWQEVWDENTGCYYYWNTQTNEVTWELPQYLATQVQGLQHYQP [D6A]	-0.354 ± 0.081

Variant	abundance fitness
SGWQYRTQCSLAGVGIEMGDWQEVWDENTGCYYYWNTQTNEVTWELPQYLATQVQGLQHYQP [D6R]	-0.14 ± 0.064
SGWQYSTQCSLAGVGIEMGDWQEVWDENTGCYYYWNTQTNEVTWELPQYLATQVQGLQHYQP [D6S]	-0.35 ± 0.07
SGWQYVTQCSLAGVGIEMGDWQEVWDENTGCYYYWNTQTNEVTWELPQYLATQVQGLQHYQP [D6V]	-0.829 ± 0.1
SGWQYETQCSLAGVGIEMGDWQEVWDENTGCYYYWNTQTNEVTWELPQYLATQVQGLQHYQP [D6E]	-0.135 ± 0.086
SGWQYPTQCSLAGVGIEMGDWQEVWDENTGCYYYWNTQTNEVTWELPQYLATQVQGLQHYQP [D6P]	-0.706 ± 0.13
SGWQYITQCSLAGVGIEMGDWQEVWDENTGCYYYWNTQTNEVTWELPQYLATQVQGLQHYQP [D6I]	-0.228 ± 0.11
SGWQYQTQCSLAGVGIEMGDWQEVWDENTGCYYYWNTQTNEVTWELPQYLATQVQGLQHYQP [D6Q]	-0.785 ± 0.17
SGWQYKTQCSLAGVGIEMGDWQEVWDENTGCYYYWNTQTNEVTWELPQYLATQVQGLQHYQP [D6K]	0.009 ± 0.088
SGWQYFTQCSLAGVGIEMGDWQEVWDENTGCYYYWNTQTNEVTWELPQYLATQVQGLQHYQP [D6F]	-0.492 ± 0.1
SGWQYYTQCSLAGVGIEMGDWQEVWDENTGCYYYWNTQTNEVTWELPQYLATQVQGLQHYQP [D6Y]	-0.644 ± 0.14
SGWQYGTQCSLAGVGIEMGDWQEVWDENTGCYYYWNTQTNEVTWELPQYLATQVQGLQHYQP [D6G]	-0.17 ± 0.068
SGWQYCTQCSLAGVGIEMGDWQEVWDENTGCYYYWNTQTNEVTWELPQYLATQVQGLQHYQP [D6C]	-0.342 ± 0.11
SGWQYDTQKSLAGVGIEMGDWQEVWDENTGCYYYWNTQTNEVTWELPQYLATQVQGLQHYQP [C9K]	0.254 ± 0.073
SGWQYDTQPSLAGVGIEMGDWQEVWDENTGCYYYWNTQTNEVTWELPQYLATQVQGLQHYQP [C9P]	-0.365 ± 0.088
SGWQYDTQDSLAGVGIEMGDWQEVWDENTGCYYYWNTQTNEVTWELPQYLATQVQGLQHYQP [C9D]	0.052 ± 0.084
SGWQYDTQSSLAGVGIEMGDWQEVWDENTGCYYYWNTQTNEVTWELPQYLATQVQGLQHYQP [C9S]	0.065 ± 0.059
SGWQYDTQASLAGVGIEMGDWQEVWDENTGCYYYWNTQTNEVTWELPQYLATQVQGLQHYQP [C9A]	0.076 ± 0.055
SGWQYDTQHSLAGVGIEMGDWQEVWDENTGCYYYWNTQTNEVTWELPQYLATQVQGLQHYQP [C9H]	-0.139 ± 0.11
SGWQYDTQISLAGVGIEMGDWQEVWDENTGCYYYWNTQTNEVTWELPQYLATQVQGLQHYQP [C9I]	-0.171 ± 0.089
SGWQYDTQQSLAGVGIEMGDWQEVWDENTGCYYYWNTQTNEVTWELPQYLATQVQGLQHYQP [C9Q]	0.017 ± 0.082
SGWQYDTQTSLAGVGIEMGDWQEVWDENTGCYYYWNTQTNEVTWELPQYLATQVQGLQHYQP [C9T]	0.22 ± 0.069
SGWQYDTQWSLAGVGIEMGDWQEVWDENTGCYYYWNTQTNEVTWELPQYLATQVQGLQHYQP [C9W]	-0.377 ± 0.095

Variant	abundance fitness
SGWQYDTQLSLAGVGIEMGDWQEVWDENTGCYYYWNTQTNEVTWELPQYLATQVQGLQHYQP [C9L]	0.049 ± 0.05
SGWQYDTQYSLAGVGIEMGDWQEVWDENTGCYYYWNTQTNEVTWELPQYLATQVQGLQHYQP [C9Y]	-0.105 ± 0.076
SGWQYDTQVSLAGVGIEMGDWQEVWDENTGCYYYWNTQTNEVTWELPQYLATQVQGLQHYQP [C9V]	0.205 ± 0.048
SGWQYDTQGSLAGVGIEMGDWQEVWDENTGCYYYWNTQTNEVTWELPQYLATQVQGLQHYQP [C9G]	-0.081 ± 0.058
SGWQYDTGCSLAGVGIEMGDWQEVWDENTGCYYYWNTQTNEVTWELPQYLATQVQGLQHYQP [Q8G]	0.105 ± 0.056
SGWQYDTDCSLAGVGIEMGDWQEVWDENTGCYYYWNTQTNEVTWELPQYLATQVQGLQHYQP [Q8D]	-0.515 ± 0.16
SGWQYDTWCSLAGVGIEMGDWQEVWDENTGCYYYWNTQTNEVTWELPQYLATQVQGLQHYQP [Q8W]	-0.421 ± 0.082
SGWQYDTFCSLAGVGIEMGDWQEVWDENTGCYYYWNTQTNEVTWELPQYLATQVQGLQHYQP [Q8F]	-0.233 ± 0.11
SGWQYDTKCSLAGVGIEMGDWQEVWDENTGCYYYWNTQTNEVTWELPQYLATQVQGLQHYQP [Q8K]	0.239 ± 0.08
SGWQYDTICSLAGVGIEMGDWQEVWDENTGCYYYWNTQTNEVTWELPQYLATQVQGLQHYQP [Q8I]	-0.445 ± 0.16
SGWQYDTRCSLAGVGIEMGDWQEVWDENTGCYYYWNTQTNEVTWELPQYLATQVQGLQHYQP [Q8R]	0.046 ± 0.053
SGWQYDTTCSLAGVGIEMGDWQEVWDENTGCYYYWNTQTNEVTWELPQYLATQVQGLQHYQP [Q8T]	0.187 ± 0.067
SGWQYDTCCSLAGVGIEMGDWQEVWDENTGCYYYWNTQTNEVTWELPQYLATQVQGLQHYQP [Q8C]	-0.188 ± 0.091
SGWQYDTACSLAGVGIEMGDWQEVWDENTGCYYYWNTQTNEVTWELPQYLATQVQGLQHYQP [Q8A]	0.29 ± 0.062
SGWQYDTHCSLAGVGIEMGDWQEVWDENTGCYYYWNTQTNEVTWELPQYLATQVQGLQHYQP [Q8H]	0.041 ± 0.12
SGWQYDTPCSLAGVGIEMGDWQEVWDENTGCYYYWNTQTNEVTWELPQYLATQVQGLQHYQP [Q8P]	-0.568 ± 0.11
SGWQYDTMCSLAGVGIEMGDWQEVWDENTGCYYYWNTQTNEVTWELPQYLATQVQGLQHYQP [Q8M]	-0.097 ± 0.072
SGWQYDTVCSLAGVGIEMGDWQEVWDENTGCYYYWNTQTNEVTWELPQYLATQVQGLQHYQP [Q8V]	-0.191 ± 0.062
SGWQYDTLCSLAGVGIEMGDWQEVWDENTGCYYYWNTQTNEVTWELPQYLATQVQGLQHYQP [Q8L]	-0.369 ± 0.061
SGWQYDTNCSLAGVGIEMGDWQEVWDENTGCYYYWNTQTNEVTWELPQYLATQVQGLQHYQP [Q8N]	-0.02 ± 0.13
SGWQYDTSCSLAGVGIEMGDWQEVWDENTGCYYYWNTQTNEVTWELPQYLATQVQGLQHYQP [Q8S]	0.164 ± 0.055
SGWQYDTYCSLAGVGIEMGDWQEVWDENTGCYYYWNTQTNEVTWELPQYLATQVQGLQHYQP [Q8Y]	-0.267 ± 0.13

Variant	abundance fitness
SGWQYDTECSLAGVGIEMGDWQEVWDENTGCYYYWNTQTNEVTWELPQYLATQVQGLQHYQP [Q8E]	0.123 ± 0.084
SGWQYDRQCSLAGVGIEMGDWQEVWDENTGCYYYWNTQTNEVTWELPQYLATQVQGLQHYQP [T7R]	-0.061 ± 0.062
SGWQYDVQCSLAGVGIEMGDWQEVWDENTGCYYYWNTQTNEVTWELPQYLATQVQGLQHYQP [T7V]	-0.262 ± 0.067
SGWQYDNQCSLAGVGIEMGDWQEVWDENTGCYYYWNTQTNEVTWELPQYLATQVQGLQHYQP [T7N]	0.124 ± 0.1
SGWQYDDQCSLAGVGIEMGDWQEVWDENTGCYYYWNTQTNEVTWELPQYLATQVQGLQHYQP [T7D]	-0.314 ± 0.11
SGWQYDGQCSLAGVGIEMGDWQEVWDENTGCYYYWNTQTNEVTWELPQYLATQVQGLQHYQP [T7G]	-0.06 ± 0.069
SGWQYDCQCSLAGVGIEMGDWQEVWDENTGCYYYWNTQTNEVTWELPQYLATQVQGLQHYQP [T7C]	0.051 ± 0.076
SGWQYDQQCSLAGVGIEMGDWQEVWDENTGCYYYWNTQTNEVTWELPQYLATQVQGLQHYQP [T7Q]	-0.012 ± 0.084
SGWQYDPQCSLAGVGIEMGDWQEVWDENTGCYYYWNTQTNEVTWELPQYLATQVQGLQHYQP [T7P]	-0.309 ± 0.083
SGWQYDAQCSLAGVGIEMGDWQEVWDENTGCYYYWNTQTNEVTWELPQYLATQVQGLQHYQP [T7A]	0.017 ± 0.067
SGWQYDLQCSLAGVGIEMGDWQEVWDENTGCYYYWNTQTNEVTWELPQYLATQVQGLQHYQP [T7L]	-0.452 ± 0.068
SGWQYDWQCSLAGVGIEMGDWQEVWDENTGCYYYWNTQTNEVTWELPQYLATQVQGLQHYQP [T7W]	-0.493 ± 0.096
SGWQYDYQCSLAGVGIEMGDWQEVWDENTGCYYYWNTQTNEVTWELPQYLATQVQGLQHYQP [T7Y]	-0.181 ± 0.11
SGWQYDEQCSLAGVGIEMGDWQEVWDENTGCYYYWNTQTNEVTWELPQYLATQVQGLQHYQP [T7E]	-0.392 ± 0.1
SGWQYDHQCSLAGVGIEMGDWQEVWDENTGCYYYWNTQTNEVTWELPQYLATQVQGLQHYQP [T7H]	-0.318 ± 0.13
SGWQYDMQCSLAGVGIEMGDWQEVWDENTGCYYYWNTQTNEVTWELPQYLATQVQGLQHYQP [T7M]	-0.37 ± 0.1
SGWQYDIQCSLAGVGIEMGDWQEVWDENTGCYYYWNTQTNEVTWELPQYLATQVQGLQHYQP [T7I]	-0.453 ± 0.13
SGWQYDSQCSLAGVGIEMGDWQEVWDENTGCYYYWNTQTNEVTWELPQYLATQVQGLQHYQP [T7S]	0.002 ± 0.063
SGWQYDKQCSLAGVGIEMGDWQEVWDENTGCYYYWNTQTNEVTWELPQYLATQVQGLQHYQP [T7K]	-0.036 ± 0.093
SGWQYDFQCSLAGVGIEMGDWQEVWDENTGCYYYWNTQTNEVTWELPQYLATQVQGLQHYQP [T7F]	-0.461 ± 0.11
